Laboratory results published in patent publication US20110236411A1.

Molecular target: purified folded MHC-complex (Example 34, allele and peptide not stated)
Assay: sandwich ELISA, W6/32 coated, HRP rabbit anti-β2m detection

Substance: W6/32 mouse-anti-HLA-ABC antibody (Dako M0736)
- fold of OD450 against the negative control β2m: > 6 fold
